Source: patent publication US20170349647A1 (PANASONIC INTELLECTUAL PROPERTY MANAGEMENT, published 2017)

Biological target: recombinant nucleoprotein (NP) protein derived from influenza virus H1N1 to which a Flag tag was fus (influenza virus H1N1)
Sequence (P03466 whole entry): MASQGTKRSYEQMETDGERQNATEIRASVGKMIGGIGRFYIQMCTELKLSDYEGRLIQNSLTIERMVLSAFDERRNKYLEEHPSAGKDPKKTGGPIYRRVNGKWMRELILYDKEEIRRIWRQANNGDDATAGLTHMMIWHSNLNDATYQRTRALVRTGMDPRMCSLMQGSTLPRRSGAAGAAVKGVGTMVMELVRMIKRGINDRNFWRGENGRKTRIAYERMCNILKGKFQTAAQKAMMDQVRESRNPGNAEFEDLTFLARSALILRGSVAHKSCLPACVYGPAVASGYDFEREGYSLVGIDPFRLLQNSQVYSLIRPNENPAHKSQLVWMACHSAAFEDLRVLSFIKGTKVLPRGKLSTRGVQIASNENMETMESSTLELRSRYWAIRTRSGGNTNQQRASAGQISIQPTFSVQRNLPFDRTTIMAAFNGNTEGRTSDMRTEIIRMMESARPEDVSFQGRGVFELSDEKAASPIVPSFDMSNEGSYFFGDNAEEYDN

B1: VHH antibody consisting of the amino acid sequence represented by SEQ ID NO: 08 (VHH)
VHH: QVQLVESGGGLVQAGGSLRLSCAASRTIFNPNVMGWYRQAPGKQRELVADISLSGSTNYADSVKGRFTISRDNAKNTMYLQMNSLKPEDTAVYYCNTNAISGAPGRYWGQGTQVTVSS
Kd: 0.236 nM
